B1: N^α1-[(4S)-4-carboxy-4-(19-carboxynonadecanoylamino)butanoyl]-[Arg17,Pro21,Pro27,Glu35]-h-amylin (peptide)
peptide: KCNTATCATQRLANFLRHSSPNFGAIPSSTNVGSETY
modifications: C20 diacid-gGlu on alpha-amino of the N-terminal residue; Cys2-Cys7 disulfide; C-terminal amide (as human amylin)
notes: Acylated analogue of human amylin; also called compound 23
B2: N^α1-[(4S)-4-carboxy-4-(19-carboxynonadecanoylamino)butanoyl]-[Arg17,Pro21,Pro27,Lys35]-h-amylin (peptide)
peptide: B1 peptide with E35K
modifications: C20 diacid-gGlu on alpha-amino of the N-terminal residue; Cys2-Cys7 disulfide; C-terminal amide (as human amylin)
notes: Acylated analogue of human amylin; also called compound 34
B3: N^α1N^α1-[(4S)-4-carboxy-4-(19-carboxynonadecanoylamino)butanoyl]-[Glu14,Arg17,Pro21,Pro27,Glu35]-h-amylin (peptide)
peptide: {C20 diacid-γGlu}-KCNTATCATQRLAEFLRHSSPNFGAIPSSTNVGSETY-NH2
modifications: disulfide 2-7
SMILES: CC[C@H](C)[C@H](NC(=O)[C@H](C)NC(=O)CNC(=O)[C@H](Cc1ccccc1)NC(=O)[C@H](CC(N)=O)NC(=O)[C@@H]1CCCN1C(=O)[C@H](CO)NC(=O)[C@H](CO)NC(=O)[C@H](Cc1c[nH]cn1)NC(=O)[C@H](CCCNC(=N)N)NC(=O)[C@H](CC(C)C)NC(=O)[C@H](Cc1ccccc1)NC(=O)[C@H](CCC(=O)O)NC(=O)[C@H](C)NC(=O)[C@H](CC(C)C)NC(=O)[C@H](CCCNC(=N)N)NC(=O)[C@H](CCC(N)=O)NC(=O)[C@@H](NC(=O)[C@H](C)NC(=O)[C@@H]1CSSC[C@H](NC(=O)[C@H](CCCCN)NC(=O)CC[C@H](NC(=O)CCCCCCCCCCCCCCCCCCC(=O)O)C(=O)O)C(=O)N[C@@H](CC(N)=O)C(=O)N[C@@H]([C@@H](C)O)C(=O)N[C@@H](C)C(=O)N[C@@H]([C@@H](C)O)C(=O)N1)[C@@H](C)O)C(=O)N1CCC[C@H]1C(=O)N[C@@H](CO)C(=O)N[C@@H](CO)C(=O)N[C@H](C(=O)N[C@@H](CC(N)=O)C(=O)N[C@H](C(=O)NCC(=O)N[C@@H](CO)C(=O)N[C@@H](CCC(=O)O)C(=O)N[C@H](C(=O)N[C@@H](Cc1ccc(O)cc1)C(N)=O)[C@@H](C)O)C(C)C)[C@@H](C)O
notes: Acylated analogue of human amylin; also called compound 22
B4: N^α1-[(4S)-4-carboxy-4-(19-carboxynonadecanoylamino)butanoyl]-[His14,Arg17,Pro21,Pro27,Glu35]-h-amylin (peptide)
peptide: {C20 diacid-γGlu}-KCNTATCATQRLAHFLRHSSPNFGAIPSSTNVGSETY-NH2
modifications: disulfide 2-7
SMILES: CC[C@H](C)[C@H](NC(=O)[C@H](C)NC(=O)CNC(=O)[C@H](Cc1ccccc1)NC(=O)[C@H](CC(N)=O)NC(=O)[C@@H]1CCCN1C(=O)[C@H](CO)NC(=O)[C@H](CO)NC(=O)[C@H](Cc1c[nH]cn1)NC(=O)[C@H](CCCNC(=N)N)NC(=O)[C@H](CC(C)C)NC(=O)[C@H](Cc1ccccc1)NC(=O)[C@H](Cc1c[nH]cn1)NC(=O)[C@H](C)NC(=O)[C@H](CC(C)C)NC(=O)[C@H](CCCNC(=N)N)NC(=O)[C@H](CCC(N)=O)NC(=O)[C@@H](NC(=O)[C@H](C)NC(=O)[C@@H]1CSSC[C@H](NC(=O)[C@H](CCCCN)NC(=O)CC[C@H](NC(=O)CCCCCCCCCCCCCCCCCCC(=O)O)C(=O)O)C(=O)N[C@@H](CC(N)=O)C(=O)N[C@@H]([C@@H](C)O)C(=O)N[C@@H](C)C(=O)N[C@@H]([C@@H](C)O)C(=O)N1)[C@@H](C)O)C(=O)N1CCC[C@H]1C(=O)N[C@@H](CO)C(=O)N[C@@H](CO)C(=O)N[C@H](C(=O)N[C@@H](CC(N)=O)C(=O)N[C@H](C(=O)NCC(=O)N[C@@H](CO)C(=O)N[C@@H](CCC(=O)O)C(=O)N[C@H](C(=O)N[C@@H](Cc1ccc(O)cc1)C(N)=O)[C@@H](C)O)C(C)C)[C@@H](C)O
notes: Acylated analogue of human amylin; also called compound 30
B5: N^α1-[(4S)-4-carboxy-4-(19-carboxynonadecanoylamino)butanoyl]-[Arg17,Pro21,Pro27,His34]-h-amylin (peptide)
peptide: B1 peptide with S34H, E35N
modifications: C20 diacid-gGlu on alpha-amino of the N-terminal residue; Cys2-Cys7 disulfide; C-terminal amide (as human amylin)
notes: Acylated analogue of human amylin; also called compound 40
B6: N^α1-[(4S)-4-carboxy-4-(19-carboxynonadecanoylamino)butanoyl]-[Arg17,Pro21,Pro27,Pro31,Glu35]-h-amylin (peptide)
peptide: {C20 diacid-γGlu}-KCNTATCATQRLANFLRHSSPNFGAIPSSTPVGSETY-NH2
modifications: disulfide 2-7
SMILES: CC[C@H](C)[C@H](NC(=O)[C@H](C)NC(=O)CNC(=O)[C@H](Cc1ccccc1)NC(=O)[C@H](CC(N)=O)NC(=O)[C@@H]1CCCN1C(=O)[C@H](CO)NC(=O)[C@H](CO)NC(=O)[C@H](Cc1c[nH]cn1)NC(=O)[C@H](CCCNC(=N)N)NC(=O)[C@H](CC(C)C)NC(=O)[C@H](Cc1ccccc1)NC(=O)[C@H](CC(N)=O)NC(=O)[C@H](C)NC(=O)[C@H](CC(C)C)NC(=O)[C@H](CCCNC(=N)N)NC(=O)[C@H](CCC(N)=O)NC(=O)[C@@H](NC(=O)[C@H](C)NC(=O)[C@@H]1CSSC[C@H](NC(=O)[C@H](CCCCN)NC(=O)CC[C@H](NC(=O)CCCCCCCCCCCCCCCCCCC(=O)O)C(=O)O)C(=O)N[C@@H](CC(N)=O)C(=O)N[C@@H]([C@@H](C)O)C(=O)N[C@@H](C)C(=O)N[C@@H]([C@@H](C)O)C(=O)N1)[C@@H](C)O)C(=O)N1CCC[C@H]1C(=O)N[C@@H](CO)C(=O)N[C@@H](CO)C(=O)N[C@H](C(=O)N1CCC[C@H]1C(=O)N[C@H](C(=O)NCC(=O)N[C@@H](CO)C(=O)N[C@@H](CCC(=O)O)C(=O)N[C@H](C(=O)N[C@@H](Cc1ccc(O)cc1)C(N)=O)[C@@H](C)O)C(C)C)[C@@H](C)O
notes: Acylated analogue of human amylin; also called compound 28

Data on 6 molecules can be found in patent US20140087995A1 (published 2014).

Residue numbers refer to the chain shown, from its start. Numbered stars: 1 amine (or outer) side, 2 acyl side, 3 side chain; on linkers, the order of the positions; unused ones are H or OH. Bridge positions count the residues as written; N and C are the ends. * marks the point of attachment. C20 diacid = O=C(O)CCCCCCCCCCCCCCCCCCC(=O)*; γGlu = O=C(O)[C@H](CCC(=O)[*:2])N[*:1]

The target of the first test is T1, rat calcitonin receptor (rat, UniProt P32214 25-516).
T1 construct: whole, on cells; Cell membranes of transiently transfected BHK tk'ts 13 cells (Assay VIII); also called rCTR; rCT
T1 sequence (looked up): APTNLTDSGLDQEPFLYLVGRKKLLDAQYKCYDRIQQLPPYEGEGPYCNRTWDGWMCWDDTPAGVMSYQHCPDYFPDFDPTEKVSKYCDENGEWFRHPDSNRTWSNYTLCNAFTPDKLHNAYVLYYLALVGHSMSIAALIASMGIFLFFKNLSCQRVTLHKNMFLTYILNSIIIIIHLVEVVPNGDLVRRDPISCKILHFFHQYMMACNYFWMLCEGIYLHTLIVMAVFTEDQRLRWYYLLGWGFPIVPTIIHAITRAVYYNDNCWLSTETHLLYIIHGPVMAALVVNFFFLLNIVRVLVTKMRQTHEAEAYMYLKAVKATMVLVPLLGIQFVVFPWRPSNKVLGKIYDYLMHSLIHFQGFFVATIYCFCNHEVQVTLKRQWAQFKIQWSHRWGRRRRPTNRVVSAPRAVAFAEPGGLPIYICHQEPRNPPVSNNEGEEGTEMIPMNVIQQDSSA
Kind of test: ratio IC50 rat calcitonin receptor / IC50 rat amylin receptor.
As to B1, the “Ratio rCT/rAmylin binding” value was 71.3.

Regarding B2, the “Ratio rCT/rAmylin binding” value is 52.

Consider B3, for which the “Ratio rCT/rAmylin binding” value came to 28.5.

For B4, the “Ratio rCT/rAmylin binding” value stood at 36.1.

For B5, the “Ratio rCT/rAmylin binding” value came out at 46.2.

For B6, the “Ratio rCT/rAmylin binding” value is 44.9.

In the next test the target is T2, rat amylin receptor (rat calcitonin receptor + rat RAMP 3) (rat, UniProt P32214 25-516; Q9JJ73 23-147).
T2 construct: whole, on cells; Cell membranes of transiently transfected BHK tk'ts 13 cells (Assay VI); also called rAmylin-R; rat amylin 3(a) receptor
T2 sequence (looked up) 1: T1 sequence (looked up)
T2 sequence (looked up) 2: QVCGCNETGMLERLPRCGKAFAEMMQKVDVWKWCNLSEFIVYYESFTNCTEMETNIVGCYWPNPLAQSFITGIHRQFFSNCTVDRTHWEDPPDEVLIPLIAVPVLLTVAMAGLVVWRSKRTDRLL
Kind of test: SPA competition vs 125I-rat amylin, membranes with rat CTR + rat RAMP3 (Assay VI).
With B1, the IC50 is 1.12 nM.

Take B2: the IC50 is 1.72 nM.

As for B3, the IC50 was 2.19 nM.

As for B4, the IC50 was 3.14 nM.

Regarding B5, the IC50 came to 1.5 nM.

With B6, the IC50 is 1.22 nM.

The next test has as its target T1, rat calcitonin receptor. Kind of test: SPA competition vs 125I-calcitonin, membranes with rat CTR (Assay VIII).
For B1, the IC50 stood at 79.9 nM.

Regarding B2, the IC50 stood at 89.2 nM.

Consider B3, for which the IC50 is 62.5 nM.

Turning to B4, the IC50 came to 114 nM.

For B5, the IC50 was determined as 69.2 nM.

In the case of B6, the IC50 worked out at 54.9 nM.

In a further test the target is T3, human calcitonin receptor (human, UniProt P30988 25-474).
T3 construct: whole, on cells; Cell membranes of a stably transfected BHK cell line (Assay VII); also called hCTR; hCT
T3 sequence (looked up): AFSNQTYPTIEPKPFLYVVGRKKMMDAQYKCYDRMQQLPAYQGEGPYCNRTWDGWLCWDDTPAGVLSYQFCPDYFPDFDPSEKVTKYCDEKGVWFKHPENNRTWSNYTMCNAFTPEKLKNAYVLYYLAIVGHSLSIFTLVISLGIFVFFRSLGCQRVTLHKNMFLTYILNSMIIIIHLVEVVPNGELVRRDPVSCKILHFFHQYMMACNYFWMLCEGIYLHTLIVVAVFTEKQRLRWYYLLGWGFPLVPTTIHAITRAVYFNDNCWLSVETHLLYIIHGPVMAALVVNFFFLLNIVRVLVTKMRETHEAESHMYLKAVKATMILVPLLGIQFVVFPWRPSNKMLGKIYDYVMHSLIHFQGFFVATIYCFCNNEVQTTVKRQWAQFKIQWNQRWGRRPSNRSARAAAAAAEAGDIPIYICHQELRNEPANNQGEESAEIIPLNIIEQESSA
Kind of test: ratio IC50 human calcitonin receptor / IC50 human amylin receptor. As for the experimental part: The resulting pellet was resuspended, homogenized and centrifuged (20.000 rpm, 15 min) in a buffer containing 20 mM Na-HEPES and 0.1 mM EDTA (pH 7.4, buffer 2). The resulting pellet was resuspended in buffer 2 and protein concentration was measured (BCA protein Assay, Pierce). The homogenate was kept cold during the whole procedure. The membranes were kept at −80° C. until use. The assay was performed in a 384 well Optiplate (PerkinElmer) in a total volume of 40 ul. Membranes were mixed with SPA beads. Final concentration of membranes 35 ng/μL final and SPA beads was 0.05 mg/well. Test-compounds were dissolved in DMSO and further diluted in assay buffer (50 mM Hepes, pH 7.4, 1 mM CaCl2, 5 mM MgCl₂, 0.1% OA and 0.02% Tween20). […] The final mixture was incubated with shaking at 400 rpm for 120 min at 25° C. prior to centrifugation (1500 rpm, 10 min). Samples were analyzed on TopCounter™ (Packard). The IC₅₀ was calculated using (one site binding competition analysis) GraphPad Prism5 as a measure of receptor affinity.
Membranes were prepared in the following way; the cells were rinsed with PBS and incubated with Versene for approximately 5 min before harvesting. The cells were flushed with PBS and the cell-suspension was centrifuged for 5 min at 1000 rpm. Cells were homogenized (Ultrathurrax) in a buffer containing 20 mM Na-HEPES and 10 mM EDTA (pH 7.4) and centrifuged at 20.000 rpm for 15 min. The resulting pellet was resuspended, homogenized and centrifuged (20.000 rpm, 15 min) in a buffer containing 20 mM Na-HEPES and 0.1 mM EDTA (pH 7.4, buffer 2). The resulting pellet was resuspended in buffer 2 and protein concentration was measured (BCA protein Assay, Pierce). The homogenate was kept cold during the whole procedure. The membranes were kept at −80° C. until use. Assay was performed in a 384 well Optiplate (PerkinElmer) in a total volume of 40 ul. Membranes were mixed with SPA beads.
For the molecule B1, the “Ratio hCT/hAmylin binding” value was determined as 25.

Turning to B2, the “Ratio hCT/hAmylin binding” value was 64.4.

With B3, the “Ratio hCT/hAmylin binding” value came out at 12.3.

Regarding B4, the “Ratio hCT/hAmylin binding” value turned out to be 23.6.

On to B5, for which the “Ratio hCT/hAmylin binding” value turned out to be 31.1.

Take B6: the “Ratio hCT/hAmylin binding” value came out at 20.5.

Usually IC50 stands for the concentration needed to halve the response being measured.
